# Assay results as given in IntAct's records for PubMed 9341158.
# Tests used:
# ap1m1_human AP1M1 = ap1m1_human AP1M1 (UniProt Q9BXS5)
# ap2m1_rat Ap2m1 = ap2m1_rat Ap2m1 (UniProt P84092)
# ap2m1_rat Ap2m1, sequence (P84092 whole entry): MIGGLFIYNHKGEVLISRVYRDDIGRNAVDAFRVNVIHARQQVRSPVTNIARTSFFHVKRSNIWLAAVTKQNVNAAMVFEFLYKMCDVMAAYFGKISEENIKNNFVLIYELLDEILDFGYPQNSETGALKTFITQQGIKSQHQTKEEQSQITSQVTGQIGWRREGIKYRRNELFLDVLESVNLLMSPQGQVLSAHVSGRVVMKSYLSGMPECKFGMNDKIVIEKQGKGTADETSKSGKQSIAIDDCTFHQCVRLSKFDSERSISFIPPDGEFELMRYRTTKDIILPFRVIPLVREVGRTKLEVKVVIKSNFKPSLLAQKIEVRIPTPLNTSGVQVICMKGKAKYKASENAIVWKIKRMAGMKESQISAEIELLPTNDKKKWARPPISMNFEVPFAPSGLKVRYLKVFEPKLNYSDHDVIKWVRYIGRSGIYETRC
# Trans-Golgi network integral membrane protein TGN38 (Rattus norvegicus (Rat)), P19814 Y350A, sequence (P19814 whole entry Y350A): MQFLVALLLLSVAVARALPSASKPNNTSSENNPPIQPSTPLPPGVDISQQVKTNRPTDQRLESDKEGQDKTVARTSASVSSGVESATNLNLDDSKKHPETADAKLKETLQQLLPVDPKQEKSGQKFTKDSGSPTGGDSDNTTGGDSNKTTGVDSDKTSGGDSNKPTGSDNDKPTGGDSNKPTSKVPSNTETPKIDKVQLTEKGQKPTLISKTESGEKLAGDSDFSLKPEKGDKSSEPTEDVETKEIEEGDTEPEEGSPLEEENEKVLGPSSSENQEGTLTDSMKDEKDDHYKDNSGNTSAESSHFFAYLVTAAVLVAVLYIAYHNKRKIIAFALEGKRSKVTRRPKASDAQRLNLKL
# ap1m1_human AP1M1, sequence (Q9BXS5 whole entry): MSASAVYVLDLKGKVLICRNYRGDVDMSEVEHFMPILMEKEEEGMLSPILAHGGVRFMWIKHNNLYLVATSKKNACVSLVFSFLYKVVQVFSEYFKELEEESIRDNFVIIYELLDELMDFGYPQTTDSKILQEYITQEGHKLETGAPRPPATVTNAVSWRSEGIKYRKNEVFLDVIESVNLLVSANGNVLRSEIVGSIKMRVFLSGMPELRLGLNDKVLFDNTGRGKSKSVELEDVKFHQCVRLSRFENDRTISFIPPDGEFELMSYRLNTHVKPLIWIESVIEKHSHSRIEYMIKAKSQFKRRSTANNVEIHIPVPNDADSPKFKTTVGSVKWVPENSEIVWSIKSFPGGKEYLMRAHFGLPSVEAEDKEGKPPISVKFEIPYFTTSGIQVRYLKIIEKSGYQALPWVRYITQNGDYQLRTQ
substance,measurement,setting,value
"Trans-Golgi network integral membrane protein TGN38 (Rattus norvegicus (Rat)), P19814 Y350A",effect of a mutation on the interaction,ap1m1_human AP1M1,decreasing interaction
same,effect of a mutation on the interaction,ap2m1_rat Ap2m1,decreasing interaction
